Laboratory results published in patent publication US20230227568A1 (Pieris, published 2023).
Like-named read-outs stand apart in the source and are kept apart here.

T1: human OX40 on cells (human, UniProt P43489 29-277)
T1 construct: whole, on cells; Stably transfected CHO cells (flow cytometry) and bought Jurkat reporter cells (OX40 bioassay); also called Flp-In-CHO::huOX40; human OX40-expressing CHO cells
T1 sequence (looked up): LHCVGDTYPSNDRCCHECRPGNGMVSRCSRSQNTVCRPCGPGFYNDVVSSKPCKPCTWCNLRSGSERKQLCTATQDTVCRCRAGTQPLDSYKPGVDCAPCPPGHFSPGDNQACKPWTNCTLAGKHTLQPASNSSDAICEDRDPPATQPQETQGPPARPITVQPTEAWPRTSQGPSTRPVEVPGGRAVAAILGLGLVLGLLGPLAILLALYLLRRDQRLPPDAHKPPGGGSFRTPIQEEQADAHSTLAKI

B1: multimeric protein SEQ ID NO: 50 (designed binder)
chain: QDSTSDLIPAPPLSKVPLQQNFQDNQFHGKWYVVGQAGNIRLREDKDPIKMMATIYELKEDKSYDVTMVKFDDKKCMYDIWTFVPGSQPGEFTLGKIKSFPGHTSSLVRVVSTNYNQHAMVFFKFVFQNREEFYITLYGRTKELTSELKENFIRFSKSLGLPENHIVFPVPIDQCIDGGGGGSGGGGSGGGGSGGGGSGGGGSGVRLWATRQAMLGQVHEVPEGWLIFVAEQEELYVRVQNGFRKVQLEARTPLGGGGSGGGGSGGGGSQDSTSDLIPAPPLSKVPLQQNFQDNQFHGKWYVVGQAGNIRLREDKDPIKMMATIYELKEDKSYDVTMVKFDDKKCMYDIWTFVPGSQPGEFTLGKIKSFPGHTSSLVRVVSTNYNQHAMVFFKFVFQNREEFYITLYGRTKELTSELKENFIRFSKSLGLPENHIVFPVPIDQCIDGGGSGGAPEQKLISEEDLGSHHHHHHHHHH
B2: multimeric protein SEQ ID NO: 51 (designed binder)
chain: QDSTSDLIPAPPLSKVPLQQNFQDNQFHGKWYVVGQAGNIRLREDKDPIKMMATIYELKEDKSYDVTMVKFDDKKCMYDIWTFVPGSQPGEFTLGKIKSFPGHTSSLVRVVSTNYNQHAMVFFKFVFQNREEFYITLYGRTKELTSELKENFIRFSKSLGLPENHIVFPVPIDQCIDGAEAAAKEAAAKEAAAKAGVRLWATRQAMLGQVHEVPEGWLIFVAEQEELYVRVQNGFRKVQLEARTPLGGGGSGGGGSGGGGSQDSTSDLIPAPPLSKVPLQQNFQDNQFHGKWYVVGQAGNIRLREDKDPIKMMATIYELKEDKSYDVTMVKFDDKKCMYDIWTFVPGSQPGEFTLGKIKSFPGHTSSLVRVVSTNYNQHAMVFFKFVFQNREEFYITLYGRTKELTSELKENFIRFSKSLGLPENHIVFPVPIDQCIDGGGSGGAPEQKLISEEDLGSHHHHHHHHHH
B3: multimeric protein SEQ ID NO: 53 (designed binder)
chain: GVRLWATRQAMLGQVHEVPEGWLIFVAEQEELYVRVQNGFRKVQLEARTPLGGGGSGGGGSGGGGSQDSTSDLIPAPPLSKVPLQQNFQDNQFHGKWYVVGQAGNIRLREDKDPIKMMATIYELKEDKSYDVTMVKFDDKKCMYDIWTFVPGSQPGEFTLGKIKSFPGHTSSLVRVVSTNYNQHAMVFFKFVFQNREEFYITLYGRTKELTSELKENFIRFSKSLGLPENHIVFPVPIDQCIDGGGGGSGGGGSGGGGSQDSTSDLIPAPPLSKVPLQQNFQDNQFHGKWYVVGQAGNIRLREDKDPIKMMATIYELKEDKSYDVTMVKFDDKKCMYDIWTFVPGSQPGEFTLGKIKSFPGHTSSLVRVVSTNYNQHAMVFFKFVFQNREEFYITLYGRTKELTSELKENFIRFSKSLGLPENHIVFPVPIDQCIDGGGSGGAPEQKLISEEDLGSHHHHHHHHHH
B4: GPC3-specific lipocalin mutein SEQ ID NO: 90 (designed binder)
chain: QDSTSDLIPAPPLSKVPLQQNFQDNQFQGKWYVVGRAGNVGLREDKDPPKMWATIYELKEDKSYDVTNVRFARKKCTYSIGTFVPGSQPGEFTLGQIKSEPGGTANLVRVVSTNYNQHAMVFFKEVYQNREIFFIILYGRTKELTSELKENFIRFSKSLGLPENHIVFPVPIDQCIDG
notes: Monomeric hNGAL mutein
B5: bispecific hexavalent trimeric protein SEQ ID NO: 166 (designed binder)
chain: QDSTSDLIPAPPLSKVPLQQNFQDSQFQGKWYVVGFAGNYRLREDKDPGKMQATIYELREDKAYQVTGVLFPHKKCHDDIVIFVPGSQPGEFILGWIKSDPGITSDLVRVVSTDYNQHAMVFFKWVFQNREWFYITLYGRTKALTSELKENFIRFSKSLGLPEDHIVFPVPIDQCIDGGGGGSGGGGSGGGGSQDSTSDLIPAPPLSKVPLQQNFQDNQFHGKWYVVGQAGNIRLREDKDPIKMMATIYELKEDKSYDVTMVKFDDKKCMYDIWTFVPGSQPGEFTLGKIKSFPGHTSSLVRVVSTNYNQHAMVFFKFVFQNREEFYITLYGRTKELTSELKENFIRFSKSLGLPENHIVFPVPIDQCIDGGGGGSGGGGSGGGGSGVRLWATRQAMLGQVHEVPEGWLIFVAEQEELYVRVQNGFRKVQLEARTPLGGSGGAPEQKLISEEDLGSHHHHHHHHHH
B6: bispecific hexavalent trimeric protein SEQ ID NO: 165 (designed binder)
chain: QDSTSDLIPAPPLSKVPLQQNFQDNQFHGKWYVVGQAGNIRLREDKDPIKMMATIYELKEDKSYDVTMVKFDDKKCMYDIWTFVPGSQPGEFTLGKIKSFPGHTSSLVRVVSTNYNQHAMVFFKFVFQNREEFYITLYGRTKELTSELKENFIRFSKSLGLPENHIVFPVPIDQCIDGGGGGSGGGGSGGGGSQDSTSDLIPAPPLSKVPLQQNFQDSQFQGKWYVVGFAGNYRLREDKDPGKMQATIYELREDKAYQVTGVLFPHKKCHDDIVIFVPGSQPGEFILGWIKSDPGITSDLVRVVSTDYNQHAMVFFKWVFQNREWFYITLYGRTKALTSELKENFIRFSKSLGLPEDHIVFPVPIDQCIDGGGGGSGGGGSGGGGSGVRLWATRQAMLGQVHEVPEGWLIFVAEQEELYVRVQNGFRKVQLEARTPLGGSGGAPEQKLISEEDLGSHHHHHHHHHH

Assays:
[1] = molecular target: T2, recombinant hu4-1BB-His (human 4-1BB with a C-terminal polyhistidine tag, R&D Systems) (human, UniProt Q07011 24-186); test: ELISA, hu4-1BB-His coated, detection anti-NGAL-HRP
T2 construct: Bought; not shown: C-terminal polyhistidine tag
Protocol: Recombinant hu4-1BB-His (human 4-1BB with a C-terminal polyhistidine tag, R&D Systems) at the concentration of 1 μg/mL in PBS was coated overnight on microtiter plates at 4° C. After washing with PBS-0.05% T (PBS supplemented with 0.05% (v/v) Tween 20), the plates were blocked with 2% BSA (w/v) in PBS-0.1% T (PBS supplemented with 0.1% (v/v) Tween 20) for 1 h at room temperature. After washing with 100 μL PBS-0.05% T five times, exemplary multimeric proteins (SEQ ID NOs: 38-44 and 46-53) or 4-1BB-specific lipocalin mutein as included in the multimeric protein (SEQ ID NO: 64) at different concentrations, ranging from 100 to 0.002 nM, were added to the wells and incubated for 1 h at room temperature, followed by another wash step. Bound molecules under study were detected by incubation with 1:1000 diluted anti-NGAL-HRP in PBS-0.1% T-2% BSA. After an additional wash step, fluorogenic HRP substrate (QuantaBlu, Thermo) was added to each well and the fluorescence intensity was detected using a fluorescence microplate reader.
The results of exemplary experiments are depicted in FIG. 2, together with the fit curves resulting from a 1:1 binding sigmoidal fit, where the EC₅₀ value and the maximum signal were free parameters, and the slope was fixed to one. The observed EC₅₀ values toward the hu4-1BB of all tested multimeric proteins were in the sub nanomolar range.

hu4-1BB-Fc (R&D Systems) = molecular target: T3, hu4-1BB-Fc (R&D Systems) (human, UniProt Q07011 24-186); test: SPR (Biacore 8K), hu4-1BB-Fc captured by anti-human IgG Fc; apparent value, 1:1 fit
T3 construct: Bought; also called human 4-1BB; not shown: human IgG Fc of the bought fusion
Protocol: The anti-human IgG Fc antibody (GE Healthcare) was immobilized on a CM5 sensor chip using standard amine chemistry: the carboxyl groups on the chip were activated using 1-ethyl-3-(3-dimethylaminopropyl)-carbodiimide (EDC) and N-hydroxysuccinimide (NHS). Subsequently, anti-human IgG Fc antibody solution (GE Healthcare) at a concentration of 25 μg/mL in 10 mM sodium acetate (pH 5.0) was applied at a flow rate of 5 μL/min until an immobilization level of 4000-10000 resonance units (RU) was achieved. Residual non-reacted NHS-esters were blocked by passing a solution of 1 M ethanolamine across the surface. The reference channel was treated in an analogous manner. Subsequently, hu4-1BB-Fc (R&D Systems) at 0.3 μg/mL was captured by the anti-human IgG-Fc antibody at the chip surface for 180 s at a flow rate of 10 μL/min.
The binding assay was carried out with a contact time of 180 s, a dissociation time of 1200 s or 3000 s and a flow rate of 30 μL/min. All measurements were performed at 25° C. Lipocalin mutein SEQ ID NO: 64 as included in the multimeric proteins was also tested as […]. […] Prior to the protein measurements, three startup cycles were performed for conditioning purposes. Data were evaluated with Biacore Evaluation software. Double referencing was used and the 1:1 binding model was used to fit the raw data.

[2] = molecular target: T4, cynomolgus 4-1BB on CHO cells (cynomolgus, UniProt A9YYE7 24-254); test: flow cytometry, Flp-In-CHO::cyno4-1BB cells
T4 construct: also called Flp-In-CHO::cyno4-1BB; cynomolgus 4-1BB-expressing CHO cells
T4 sequence (A9YYE7 entry or part of it limits assumed): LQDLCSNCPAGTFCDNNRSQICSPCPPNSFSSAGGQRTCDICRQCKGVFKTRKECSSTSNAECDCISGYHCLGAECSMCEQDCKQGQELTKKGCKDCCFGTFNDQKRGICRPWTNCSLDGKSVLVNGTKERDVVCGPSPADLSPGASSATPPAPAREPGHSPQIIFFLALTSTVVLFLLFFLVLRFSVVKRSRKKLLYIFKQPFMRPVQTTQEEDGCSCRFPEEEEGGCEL
Protocol: (§1) CHO cells were stably transfected with human 4-1BB, cynomolgus 4-1BB, or a mock control using the Flp-In system (Life Technologies) according to the manufacturer's instructions. Transfected CHO cells were maintained in Ham's F12 medium (Life Technologies) supplemented with 10% Fetal Calf Serum (Biochrom) and 500 μg/ml Hygromycin B (Roth). Cells were cultured in cell culture flasks according to manufacturer's instruction (37° C., 5% CO₂ atmosphere).
(§2) 5×10⁴ cells per well were incubated for 1 h in ice-cold PBS containing 5% fetal calf serum (PBS-FCS). A dilution series of the tested multimeric proteins (SEQ ID NOs: 38-44 and 46-55), the 4-1BB-targeting lipocalin mutein as included in the multimeric proteins (SEQ ID NO: 64) or the GPC3-targeting lipocalin SEQ ID NO: 90 were added to the cells and incubated for 1 h on ice. Cells were washed twice with PBS and then incubated with a rabbit anti-NGAL or a goat anti-human IgG labeled with fluorescent dye Alexa 488 for 30 min on ice. Human IgG4 isotype (SEQ ID NOs: 29 and 30) and lipocalin mutein SEQ ID NO: 8 were tested as a negative control. Cells were subsequently washed and analyzed using iQue Flow cytometer (Intellicyte Screener). Mean geometric fluorescent signals were plotted and fitted with Graphpad software using nonlinear regression (shared bottom, four parameters, variable slope).

human 4-1BB on cells [3] = molecular target: T5, human 4-1BB on cells (human, UniProt Q07011 24-255); test: cell-based or functional assay
T5 sequence (Q07011 24-255): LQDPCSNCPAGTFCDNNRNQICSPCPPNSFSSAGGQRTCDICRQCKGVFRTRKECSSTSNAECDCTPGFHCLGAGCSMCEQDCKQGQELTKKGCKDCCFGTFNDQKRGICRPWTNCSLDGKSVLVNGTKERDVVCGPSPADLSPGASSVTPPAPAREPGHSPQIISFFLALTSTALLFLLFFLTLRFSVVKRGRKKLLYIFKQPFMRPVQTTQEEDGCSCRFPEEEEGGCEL

human 4-1BB on cells [4] = molecular target: T5, human 4-1BB on cells; test: flow cytometry, Flp-In-CHO::hu4-1BB cells
Protocol: as §1, §2

[5] = molecular target: T6, human GPC3 on HepG2 cells (human, UniProt P51654 25-554); test: flow cytometry, HepG2 cells
T6 construct: whole, on cells; Endogenous GPC3 of the tumor cell line; also called GPC3-positive tumor cell line HepG2; human GPC3-expressing HepG2 cells
T6 sequence (P51654 25-554 limits assumed): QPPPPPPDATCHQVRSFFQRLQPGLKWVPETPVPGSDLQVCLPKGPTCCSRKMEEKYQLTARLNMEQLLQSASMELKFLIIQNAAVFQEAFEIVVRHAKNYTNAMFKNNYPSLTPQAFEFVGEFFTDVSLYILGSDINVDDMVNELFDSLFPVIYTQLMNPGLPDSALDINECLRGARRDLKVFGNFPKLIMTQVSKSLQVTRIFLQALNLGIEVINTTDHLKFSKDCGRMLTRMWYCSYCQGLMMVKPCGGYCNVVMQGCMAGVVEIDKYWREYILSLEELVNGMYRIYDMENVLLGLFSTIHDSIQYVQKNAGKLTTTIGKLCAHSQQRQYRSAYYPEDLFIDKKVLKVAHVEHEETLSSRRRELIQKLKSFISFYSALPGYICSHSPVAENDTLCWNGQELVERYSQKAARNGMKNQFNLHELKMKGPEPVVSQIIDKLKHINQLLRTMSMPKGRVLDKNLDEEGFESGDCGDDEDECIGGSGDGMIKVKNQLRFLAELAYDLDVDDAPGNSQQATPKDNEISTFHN
Protocol: GPC3-positive tumor cell line HepG2 was cultured in Dulbecco's Modified Eagle's Medium ([…], Pan Biotech) supplemented with 10% Fetal Calf Serum (Sigma-Aldrich) and in cell culture flasks according to manufacturer's instruction (37° C., 5% CO₂ atmosphere).
as §2

human OX40 on cells = molecular target: T1, human OX40 on cells; test: flow cytometry, Flp-In-CHO::huOX40 cells
Protocol: as §2
(§3) Target-specific binding of hexavalent trimeric proteins to human 4-1BB-, OX40- or PD-L1-expressing cells was assessed by flow cytometry as described in Example 5, using CHO cells stably transfected with human 4-1BB, human OX40 or human PD-L1 (Flp-In system; Life Technologies).

human 4-1BB on cells [6] = molecular target: T5, human 4-1BB on cells; test: flow cytometry, Flp-In-CHO::hu4-1BB cells; remark: listed apart in the source
Protocol: as §2, §3

Binder	EC50 [1] [nM]	Kd (hu4-1BB-Fc (R&D Systems)) [nM]	koff (hu4-1BB-Fc (R&D Systems)) [s⁻¹]	kon (hu4-1BB-Fc (R&D Systems)) [M⁻¹ s⁻¹]	EC50 [2] [nM]	EC50 [nM], 4-1BB bioassay (NFκB-luc2/4-1BB Jurkat luminescence), with HepG2 cells (human 4-1BB on cells [3]) [nM]	EC50 (human 4-1BB on cells [4]) [nM]	EC50 [5] [nM]	EC50 (human OX40 on cells) [nM]	EC50 (human 4-1BB on cells [6]) [nM]
B1	0.13	0.17	1.36e-05	78800	2.62	0.92	2.49			
B2	0.15	0.36	2.53e-05	71000	4.41	0.97	4.41			
B3	0.14	0.13	9.99e-06	77100	4.55	1.83	4.2			
B4								1.53		
B5									0.56	4.51
B6									0.18	2.19
